In patent publication US20140057807A1 (UNIVERSITY OF CHICAGO, published 2014):

What was measured:
[1] = biological target: T1, human Abl SH2 domain (human, UniProt P00519 112-232, limits assumed); assay: method not given
T1 construct: domain: SH2 domain; poly-histidine tagged in selection; tag cleaved for SPR and crystals; also called Ab1SH2; SH2 domain of Abl kinase
T1 sequence (looked up): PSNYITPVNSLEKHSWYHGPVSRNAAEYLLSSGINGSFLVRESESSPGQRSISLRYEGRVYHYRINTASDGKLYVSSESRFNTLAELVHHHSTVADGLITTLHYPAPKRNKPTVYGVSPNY

[2] = biological target: T1, human Abl SH2 domain; assay: Kd (nM) column of the drawn table; the method for this clone is not stated (SH13 came directly from the phage display library)

B1: SH13 (designed binder)
chain: VSSVPTKLEVVAATPTSLLISWDAPAVDFYVYLITYGETGGNSPVQEFTVPGSKSTATISGLSPGVDYTITVYGYSDSWNWPYSPISINYRT
notes: also called SH13 monobody
Kd [1]: ~4 µM
Kd [2]: 6.8 µM
